For four sequences, activity (fold activation) results are on record in US10676749.

What all share (assay): cell_activity
What all share (settings): VEGF-A ELISA, 293 cells
Background: An ELISA detects its analyte on a solid surface through an enzyme-linked reagent.

In series [1] the test system is TALE-VP64 VEGF2-4 (synthetic).
For series [2], the system named is TALE-VP64 VEGF2-1 (synthetic).
Series [3] concerns TALE-VP64 VEGF2-3 (synthetic).
The test system of series [4] is TALE-VP64 VEGF2-2 (synthetic).

In the case of “TCCCGCAGCTGACCAGTCGCGC (double strand) [VEGF2-4 site]”, the activity (fold activation) in series [1] is over 5.3. As to “TCCCGCAGCTGACCAG (double strand) [VEGF2-1 site]”, in series [2], the activity (fold activation) was over 5.3. As for “TCCCGCAGCTGACCAGTCGC (double strand) [VEGF2-3 site]”, in series [3], the activity (fold activation) is over 5.3.

In series [4], “TCCCGCAGCTGACCAGTC (double strand) [VEGF2-2 site]” displayed an activity (fold activation) of over 5.3.
